Experimental data as given in ChEMBL document CHEMBL4422612, “Small Molecule Inhibitor that Stabilizes the Autoinhibited Conformation of the Oncogenic Tyrosine Phosphatase SHP2” (J Med Chem, 2019).

Assays:
[1] = compound: CCOc1cc(O)c(C(=O)/C=C/c2ccc(Cl)cc2Cl)cc1CN1CCC=C(n2c(=O)[nH]c3ccccc32)C1; assay: Mixed type inhibition of human wild-type full length SHP2 assessed as substrate Vmax at 10 uM using H-Glu-Phe-pTyr-Ala-Glu-Val-Gly-Arg-Ser-Pro-Pro-Asp-Pro-Ala-Lys as substrate by Lineweaver-Burk plot analysis (reference value: 5.55 +/- 0.49 uM/min)
[2] = compound: CCOc1cc(O)c(C(=O)/C=C/c2ccc(Cl)cc2Cl)cc1CN1CCC=C(n2c(=O)[nH]c3ccccc32)C1; assay: Mixed type inhibition of human wild-type full length SHP2 assessed as substrate Km at 10 uM using H-Glu-Phe-pTyr-Ala-Glu-Val-Gly-Arg-Ser-Pro-Pro-Asp-Pro-Ala-Lys as substrate by Lineweaver-Burk plot analysis (reference value: 0.034 +/- 0.012 mM)
[3] = compound: CCOc1cc(O)c(C(=O)/C=C/c2ccc(Cl)cc2Cl)cc1CN1CCC=C(n2c(=O)[nH]c3ccccc32)C1; assay: Mixed type inhibition of human wild-type full length SHP2 assessed as substrate Kcat at 10 uM using H-Glu-Phe-pTyr-Ala-Glu-Val-Gly-Arg-Ser-Pro-Pro-Asp-Pro-Ala-Lys as substrate by Lineweaver-Burk plot analysis (reference value: 3.19 +/- 0.28 Sec'-1)
[4] = compound: CCOc1cc(O)c(C(=O)/C=C/c2ccc(Cl)cc2Cl)cc1CN1CCC=C(n2c(=O)[nH]c3ccccc32)C1; assay: Mixed type inhibition of human wild-type full length SHP2 assessed as substrate Vmax at 20 uM using H-Glu-Phe-pTyr-Ala-Glu-Val-Gly-Arg-Ser-Pro-Pro-Asp-Pro-Ala-Lys as substrate by Lineweaver-Burk plot analysis (reference value: 5.55 +/- 0.49 uM/min)
[5] = compound: CCOc1cc(O)c(C(=O)/C=C/c2ccc(Cl)cc2Cl)cc1CN1CCC=C(n2c(=O)[nH]c3ccccc32)C1; assay: Mixed type inhibition of human wild-type full length SHP2 assessed as substrate Km at 20 uM using H-Glu-Phe-pTyr-Ala-Glu-Val-Gly-Arg-Ser-Pro-Pro-Asp-Pro-Ala-Lys as substrate by Lineweaver-Burk plot analysis (reference value: 0.034 +/- 0.012 mM)
[6] = compound: CCOc1cc(O)c(C(=O)/C=C/c2ccc(Cl)cc2Cl)cc1CN1CCC=C(n2c(=O)[nH]c3ccccc32)C1; assay: Mixed type inhibition of human wild-type full length SHP2 assessed as substrate Kcat at 20 uM using H-Glu-Phe-pTyr-Ala-Glu-Val-Gly-Arg-Ser-Pro-Pro-Asp-Pro-Ala-Lys as substrate by Lineweaver-Burk plot analysis (reference value: 3.19 +/- 0.28 Sec'-1)
[7] = compound: CCOc1cc(O)c(C(=O)/C=C/c2ccc(Cl)cc2Cl)cc1CN1CCC=C(n2c(=O)[nH]c3ccccc32)C1; assay: Mixed type inhibition of human wild-type full length SHP2 assessed as Kcat/Km ratio at 10 uM using H-Glu-Phe-pTyr-Ala-Glu-Val-Gly-Arg-Ser-Pro-Pro-Asp-Pro-Ala-Lys as substrate by Lineweaver-Burk plot analysis (reference value: 100.3 +/- 25 /mM/sec)
[8] = compound: CCOc1cc(O)c(C(=O)/C=C/c2ccc(Cl)cc2Cl)cc1CN1CCC=C(n2c(=O)[nH]c3ccccc32)C1; assay: Mixed type inhibition of human wild-type full length SHP2 assessed as Kcat/Km ratio at 20 uM using H-Glu-Phe-pTyr-Ala-Glu-Val-Gly-Arg-Ser-ProPro-Asp-Pro-Ala-Lys as substrate by Lineweaver-Burk plot analysis (reference value: 100.3 +/- 25 /mM/sec)

B1: Tyrosine-protein phosphatase non-receptor type 11 (Homo sapiens), Q06124 (protein)
chain: MTSRRWFHPNITGVEAENLLLTRGVDGSFLARPSKSNPGDFTLSVRRNGAVTHIKIQNTGDYYDLYGGEKFATLAELVQYYMEHHGQLKEKNGDVIELKYPLNCADPTSERWFHGHLSGKEAEKLLTEKGKHGSFLVRESQSHPGDFVLSVRTGDDKGESNDGKSKVTHVMIRCQELKYDVGGGERFDSLTDLVEHYKKNPMVETLGTVLQLKQPLNTTRINAAEIESRVRELSKLAETTDKVKQGFWEEFETLQQQECKLLYSRKEGQRQENKNKNRYKNILPFDHTRVVLHDGDPNEPVSDYINANIIMPEFETKCNNSKPKKSYIATQGCLQNTVNDFWRMVFQENSRVIVMTTKEVERGKSKCVKYWPDEYALKEYGVMRVRNVKESAAHDYTLRELKLSKVGQGNTERTVWQYHFRTWPDHGVPSDPGGVLDFLEEVHHKQESIMDAGPVVVHCSAGIGRTGTFIVIDILIDIIREKGVDCDIDVPKTIQMVRSQRSGMVQTEAQYRFIYMAVQHYIETLQRRIEEEQKSKRKGHEYTNIKYSLADQTSGDQSPLPPCTPTPPCAEMREDSARVYENVGLMQQQKSFR
- Vmax [1]: 2.6 µM/min
- Km [2]: 47 µM
- kcat [3]: 1.5 s⁻¹
- Vmax [4]: 1.5 µM/min
- Km [5]: 52 µM
- kcat [6]: 0.86 s⁻¹
- kcat/Km [7]: 33.2 mM⁻¹ s⁻¹
- kcat/Km [8]: 17.2 mM⁻¹ s⁻¹
